Measurements: the supplement of paper PMC9170038

System: K4 kissing-loop RNA reporter
Test: apparent KD of K4 kissing-loop reporter; higher = weaker reporter binding
Settings: Eterna round: R107
Procedure: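 RNA-MaP round R107: designed RNA switches with theophylline, tryptophan, arginine or FMN aptamers are transcribed on-chip within common flanks. They are titrated with a labelled K4 kissing-loop RNA reporter in RNA-MaP buffer (100 mM Tris pH 7.5, 80 mM KCl, 4 mM MgCl2), without ligand or with the indicated ligand. Median apparent KD per design.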

[1] = input ligand: theophylline 20 uM
[2] = input ligand: tryptophan 2.4 mM
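Further: bound reporter read as fluorescence of individual clusters on recovered sequencing chips by microscopy, with normalized cluster intensities fitted with a binding model.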

Q: How did the “apparent KD of K4 kissing-loop reporter” value (input ligand: FMN 200 uM) turn out when “CGGCUCAAUCCUAGUAUUAAGAGGGAGUUGCGAGGACCGGUACGGCCGCCACUCGAAGUAGUUUGGCCAGUGAUGUUGGUCUUAC [Mabeleon]” was run?
A: 203 nM

Q: What about the “apparent KD of K4 kissing-loop reporter” value (input ligand: arginine 13.2 mM) of the same sequence?
A: 194 nM

Q: And the “apparent KD of K4 kissing-loop reporter” value (input ligand: none)?
A: 210 nM

Q: And the “apparent KD of K4 kissing-loop reporter” value [1]?
A: 204 nM

Q: What about the “apparent KD of K4 kissing-loop reporter” value [2] of the same sequence?
A: 121 nM

Q: For “CGUGAGGACCAGAGGUGAUGUAUAGUAUCGCGAGGACCGGUACGGCCGCCACUCGUGAAGAGAAAGGAGUGAUGUUCCGUAAUGG [Kazoo C10]”, which “apparent KD of K4 kissing-loop reporter” value (input ligand: FMN 200 uM) is on record?
A: 343 nM

Q: What about the “apparent KD of K4 kissing-loop reporter” value (input ligand: arginine 13.2 mM) of the same sequence?
A: 292 nM

Q: What about the “apparent KD of K4 kissing-loop reporter” value (input ligand: none) of the same sequence?
A: 304 nM

Q: What about the “apparent KD of K4 kissing-loop reporter” value [1] of the same sequence?
A: 377 nM

Q: And the “apparent KD of K4 kissing-loop reporter” value [2]?
A: 110 nM

Q: What does the source list for “CGUGCCCGGCCGGAUACCAGUGACCCGCUGGGAACCGCGGGCCCAGAGUGAUGUUCGGGACACCCUUGGCAGCCGCCUGGGCUGC [#2 Same State - Theophylline B Attempt #14 (HarryS)]”?
A: apparent KD of K4 kissing-loop reporter (input ligand: FMN 200 uM): 540 nM; apparent KD of K4 kissing-loop reporter (input ligand: arginine 13.2 mM): 395 nM; apparent KD of K4 kissing-loop reporter (input ligand: none): 757 nM; apparent KD of K4 kissing-loop reporter [1]: 375 nM; apparent KD of K4 kissing-loop reporter [2]: 415 nM

Q: Which results are given for “CGUUUAUAGCAGGAUACCAGUGCGGAUAAGGUGCGUUAAUAGUAGAGUGAUGUUCUAAAGUACCCUUGGCAGCUUAGAGUGAGUG [#21 K4 Theophylline B Exclusion]”?
A: apparent KD of K4 kissing-loop reporter (input ligand: FMN 200 uM): 202 nM; apparent KD of K4 kissing-loop reporter (input ligand: arginine 13.2 mM): 144 nM; apparent KD of K4 kissing-loop reporter (input ligand: none): 145 nM; apparent KD of K4 kissing-loop reporter [1]: 273 nM; apparent KD of K4 kissing-loop reporter [2]: 108 nM

Q: What does the source list for “CUAGGCAACACAGGAUAUGUCCGAGUGAUGUUCGAGCCUUUCCAUUGACGAAAUUAAUGGUGGGUGACAGAAGGGUGAGUGCUGA [Xezaqu]”?
A: apparent KD of K4 kissing-loop reporter (input ligand: FMN 200 uM): 354 nM; apparent KD of K4 kissing-loop reporter (input ligand: arginine 13.2 mM): 577 nM; apparent KD of K4 kissing-loop reporter (input ligand: none): 620 nM; apparent KD of K4 kissing-loop reporter [1]: 585 nM; apparent KD of K4 kissing-loop reporter [2]: 432 nM

Q: With “CUAUGGGUGGACGAUACCAGCUAGUGAUGUUAGCGGGUCGAGCACGCGCAUCGCCGUGGUAGCCCUUGGCAGCGUACAGAUGUUU [theeternabot_exclusion_KL_Theo_B_5]” as the sequence, how does the “apparent KD of K4 kissing-loop reporter” value (input ligand: FMN 200 uM) read?
A: 186 nM

Q: And the “apparent KD of K4 kissing-loop reporter” value (input ligand: arginine 13.2 mM)?
A: 131 nM

Q: What about the “apparent KD of K4 kissing-loop reporter” value (input ligand: none) of the same sequence?
A: 178 nM

Q: What about the “apparent KD of K4 kissing-loop reporter” value [1] of the same sequence?
A: 157 nM

Q: And the “apparent KD of K4 kissing-loop reporter” value [2]?
A: 162 nM

Q: How did the “apparent KD of K4 kissing-loop reporter” value (input ligand: FMN 200 uM) turn out when “CUCGACACGGGAAGGAGCGGUUGCGUGUGCCAGUGAUGUUGGAUCAGCAGACUGCCCGGUAGCCAGGUAGGUCGCCUGUGCUGAG [Esbeescexe]” was run?
A: 219 nM

Q: And the “apparent KD of K4 kissing-loop reporter” value (input ligand: arginine 13.2 mM)?
A: 166 nM

Q: What about the “apparent KD of K4 kissing-loop reporter” value (input ligand: none) of the same sequence?
A: 162 nM

Q: What about the “apparent KD of K4 kissing-loop reporter” value [1] of the same sequence?
A: 189 nM

Q: And the “apparent KD of K4 kissing-loop reporter” value [2]?
A: 142 nM

Q: Which “apparent KD of K4 kissing-loop reporter” value (input ligand: FMN 200 uM) does the source give for “CUCGAGUGAUGUUCGUUUAUUUAUACAGAUACCAGUGAAUUUUAACACCCUUGGCAGCUGGUUGUAUCUUUGUUUUUUACACAAG [JR_Nu_ExcTheophyA_Sub024]” here?
A: 191 nM

Q: And the “apparent KD of K4 kissing-loop reporter” value (input ligand: arginine 13.2 mM)?
A: 297 nM

Q: And the “apparent KD of K4 kissing-loop reporter” value (input ligand: none)?
A: 211 nM

Q: And the “apparent KD of K4 kissing-loop reporter” value [1]?
A: 338 nM

Q: And the “apparent KD of K4 kissing-loop reporter” value [2]?
A: 154 nM

Q: With “CUUACCCAUCGGAUGGAUCAACUGCACACGAAGGAUAUACACACGGGUAGAAGGUCGGGAUUCCAGUGAUGUUGGAUGGUACGAC [theeternabot_exclusion_KL_FMN_A_29]” as the sequence, how does the “apparent KD of K4 kissing-loop reporter” value (input ligand: FMN 200 uM) read?
A: 87.2 nM

Q: And the “apparent KD of K4 kissing-loop reporter” value (input ligand: arginine 13.2 mM)?
A: 96.5 nM

Q: And the “apparent KD of K4 kissing-loop reporter” value (input ligand: none)?
A: 91.3 nM

Q: What about the “apparent KD of K4 kissing-loop reporter” value [1] of the same sequence?
A: 98.7 nM

Q: And the “apparent KD of K4 kissing-loop reporter” value [2]?
A: 74.2 nM

Q: “CUUCGUAAAGGCCCAGUGAUGUUGGGCACUCGAGGACCGGUACGGCCGCCACUCGCUCCCUAAGUCGCGCGCGUGGGCCACCGCC [Xeteoredre]” was tested. Which “apparent KD of K4 kissing-loop reporter” value (input ligand: FMN 200 uM) did it give?
A: 111 nM

Q: And the “apparent KD of K4 kissing-loop reporter” value (input ligand: arginine 13.2 mM)?
A: 110 nM

Q: What about the “apparent KD of K4 kissing-loop reporter” value (input ligand: none) of the same sequence?
A: 99.4 nM

Q: What about the “apparent KD of K4 kissing-loop reporter” value [1] of the same sequence?
A: 104 nM

Q: And the “apparent KD of K4 kissing-loop reporter” value [2]?
A: 113 nM

Q: Which results are given for “CUUGAUCGAGGAAGGAGCGGGCCGUCAUUGAGCGCAGUGAUGUUGCGGUCGACUAGUCGAGCCCAGGUAGGUCGCCUGGAGUAAG [Xeveis]”?
A: apparent KD of K4 kissing-loop reporter (input ligand: FMN 200 uM): 202 nM; apparent KD of K4 kissing-loop reporter (input ligand: arginine 13.2 mM): 159 nM; apparent KD of K4 kissing-loop reporter (input ligand: none): 173 nM; apparent KD of K4 kissing-loop reporter [1]: 160 nM; apparent KD of K4 kissing-loop reporter [2]: 192 nM

Q: With “CUUGUACAAGUGAUGUUUGUUAUAUCCGAAGGAGCGUCGUACUAGACAGGUAGGUCGCGGAUGAAGAUAGUUUUUUUAAUAUCAU [JR_Nu_SSArginiA_Sub028]” as the sequence, how does the “apparent KD of K4 kissing-loop reporter” value (input ligand: FMN 200 uM) read?
A: 687 nM

Q: What about the “apparent KD of K4 kissing-loop reporter” value (input ligand: arginine 13.2 mM) of the same sequence?
A: 474 nM

Q: What about the “apparent KD of K4 kissing-loop reporter” value (input ligand: none) of the same sequence?
A: 761 nM

Q: What about the “apparent KD of K4 kissing-loop reporter” value [1] of the same sequence?
A: 648 nM

Q: What about the “apparent KD of K4 kissing-loop reporter” value [2] of the same sequence?
A: 533 nM

Q: Which “apparent KD of K4 kissing-loop reporter” value (input ligand: FMN 200 uM) does the source give for “CUUUGAACAUGAGUGAUGUUCAUGUCCGAAGGAGCGUGCGAAAGCACAGGUAGGUCGCGGACGUGAGUGAUGUUCAUGUGAGCGA [KL-XArg-A11 #analogue]” here?
A: 196 nM

Q: What about the “apparent KD of K4 kissing-loop reporter” value (input ligand: arginine 13.2 mM) of the same sequence?
A: 134 nM

Q: What about the “apparent KD of K4 kissing-loop reporter” value (input ligand: none) of the same sequence?
A: 161 nM

Q: And the “apparent KD of K4 kissing-loop reporter” value [1]?
A: 167 nM

Q: And the “apparent KD of K4 kissing-loop reporter” value [2]?
A: 154 nM

Q: How did the “apparent KD of K4 kissing-loop reporter” value (input ligand: FMN 200 uM) turn out when “GAAAGAAAGAAUGAUACCAGACACCCGAGUGAUGUUCGGAGCAGAGUGAUGUUCUUAUAAGUCCCUUGGCAGCAUAAAAGAAAAG [whbob_SS_Theo_B_sa82]” was run?
A: 192 nM

Q: And the “apparent KD of K4 kissing-loop reporter” value (input ligand: arginine 13.2 mM)?
A: 171 nM

Q: What about the “apparent KD of K4 kissing-loop reporter” value (input ligand: none) of the same sequence?
A: 196 nM

Q: And the “apparent KD of K4 kissing-loop reporter” value [1]?
A: 186 nM

Q: And the “apparent KD of K4 kissing-loop reporter” value [2]?
A: 153 nM

Q: “GAAGGAGACAACAUCACUACUCCUUCAGACUAGGAUAUCAGGAAACUGAGAAGGAGUCUACUUGCAGUGAUGUUGCAAGAAUAAU [[F]''-[K]'-[F]'-[F1]-[F2]-[K1]-[K2]_Design2]” was tested. Which “apparent KD of K4 kissing-loop reporter” value (input ligand: FMN 200 uM) did it give?
A: 167 nM

Q: And the “apparent KD of K4 kissing-loop reporter” value (input ligand: arginine 13.2 mM)?
A: 123 nM

Q: And the “apparent KD of K4 kissing-loop reporter” value (input ligand: none)?
A: 146 nM

Q: And the “apparent KD of K4 kissing-loop reporter” value [1]?
A: 148 nM

Q: And the “apparent KD of K4 kissing-loop reporter” value [2]?
A: 118 nM

Q: Which “apparent KD of K4 kissing-loop reporter” value (input ligand: FMN 200 uM) does the source give for “GAAGGUCAAAGACCUUCGUGCACAACUGAUACCAGUCGCGAAAGCGACCCUUGGCAGCAGGGCAGUGAUGUUGCCAGUGCACAAA [Omei KL Theo A SS A v3]” here?
A: 157 nM

Q: What about the “apparent KD of K4 kissing-loop reporter” value (input ligand: arginine 13.2 mM) of the same sequence?
A: 166 nM

Q: And the “apparent KD of K4 kissing-loop reporter” value (input ligand: none)?
A: 167 nM

Q: And the “apparent KD of K4 kissing-loop reporter” value [1]?
A: 124 nM

Q: And the “apparent KD of K4 kissing-loop reporter” value [2]?
A: 169 nM
